The record followed here is US11278600B2, “Human alpha-galactosidase variants” (Codexis, Inc., priority 2014, dated 2022).

Holding throughout (format): biochemical
Data set [1] can be described thus: HTP-analysis of yeast culture supernatants, no challenge (MUGal hydrolysis). The conditions noted are these: activity of the variant/activity of WT GLA (SEQ ID NO: 5), yeast supernatant. In outline: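 Activity read as 4-methylumbelliferyl α-D-galactopyranoside hydrolysis: fluorescence (355/448 nm) after sodium carbonate stop, following 30-180 min at 37° C with 2 mM MUGal stock at pH 4.6–4.8. Enzyme source is unchallenged culture supernatant of INVSc1 yeast expressing GLA variants, grown 66-84 h at 30° C.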

The nature of data set [2]: HTP-analysis of supernatants pretreated with acid (MUGal hydrolysis). The conditions noted are these: challenge at pH 4.2; activity of the variant/activity of WT GLA (SEQ ID NO: 5); yeast supernatant. In short, it runs like this: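 Supernatants from INVSc1 yeast secreting GLA variants were challenged at 37° C. for 1-3 h in McIlvaine buffer at pH 3.3-4.3. Residual activity was then measured on 4 mM MUGal substrate stock at pH 4.8 with citrate buffer pH 4.3, over 30-180 min at 37° C. Reactions were quenched with sodium carbonate and read by fluorescence (Ex 355/Em 448 nm).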

Data set [3] is described as follows: HTP-analysis of supernatants pretreated with base (MUGal hydrolysis). The conditions noted are these: challenge at pH 7.1; activity of the variant/activity of WT GLA (SEQ ID NO: 5); yeast supernatant. In short, it runs like this:
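Fluorescence of released 4-MU (Ex 355 nm, Em 448 nm) after carbonate quench reports MUGal hydrolysis by GLA variants secreted from INVSc1 yeast. Before the acidic (pH 4.3-4.8) 30-180 min reaction at 37° C, supernatants had been pre-incubated at pH 7.0-9.7 for 1-18 h at 37° C.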

Changes are numbered by the printed parent chain.

B1: 79 (protein)
chain: LDNGLARTPTMGWLHWERFMCNLDCQEEPDSCISEKLFMEMAELMVSEGWKDAGYEYLCIDDCWMAPQRDSEGRLQADPQRFPHGIRQLANYVHSKGLKLGIYADVGNKTCAGFPGSFGYYDIDAQTFADWGVDLLKFDGCYCDSLENLADGYKHMSLALNRTGRSIVYSCEWPLYMWPFQKPNYTEIRQYCNHWRNFADIDDSWKSIKSILDWTSFNQERIVDVAGPGGWNDPDMLVIGNFGLSWNQQVTQMALWAIMAAPLFMSNDLRHISPQAKALLQDKDVIAINQDPLGKQGYQLRQGDNFEVWERPLSGLAWAVAMINRQEIGGPRSYTIAVASLGGGVACNPACFITQLLPVKRKLGFYEWTSRLRSHINPTGTVLLQLENTMQMSKDLLL
modifications: Synthetic Polypeptide sequence of Variant No. 79 of mature Human GLA
On to B1, for which the “Relative Activity of GLA Variants After No Challenge (NC)” value in data set [1] was “++ (++ = >1.5 to 2.5 relative activity over WT GLA (SEQ ID NO: 5))”. The “Relative Activity of GLA Variants After Challenge at pH 4.2” value (shortened to “Relative Activity … at pH 4.2”) in data set [2] is recorded as “++ (++ = >1.5 to 2.5 relative activity over WT GLA (SEQ ID NO: 5))”. Moreover, in data set [3], the “Relative Activity of GLA Variants After Challenge at pH 7.1” value (shortened to “Relative Activity … at pH 7.1”) is on record as “++ (++ = >1.5 to 2.5 relative activity over WT GLA (SEQ ID NO: 5))”.

B2: 86 (protein)
chain: B1 chain with G343K, D395P
modifications: Synthetic Polypeptide sequence of Variant No. 86 of mature Human GLA
In the case of B2, the “Relative Activity of GLA Variants After No Challenge (NC)” value in data set [1] is “++ (++ = >1.5 to 2.5 relative activity over WT GLA (SEQ ID NO: 5))”. The “Relative Activity … at pH 4.2” value in data set [2] was “++ (++ = >1.5 to 2.5 relative activity over WT GLA (SEQ ID NO: 5))”. In data set [3], the “Relative Activity … at pH 7.1” value is on record as “++ (++ = >1.5 to 2.5 relative activity over WT GLA (SEQ ID NO: 5))”.

B3: 81 (protein)
chain: B1 chain with G343K, K362R
modifications: Synthetic Polypeptide sequence of Variant No. 81 of mature Human GLA
In the case of B3, the “Relative Activity of GLA Variants After No Challenge (NC)” value in data set [1] was “+ (+ = 0.5 to 1.5 relative activity over WT GLA (SEQ ID NO: 5))”. Moreover, in data set [2], the “Relative Activity … at pH 4.2” value is “+ (+ = 0.5 to 1.5 relative activity over WT GLA (SEQ ID NO: 5))”. For the same molecule, in data set [3], the “Relative Activity … at pH 7.1” value is recorded as “+ (+ = 0.5 to 1.5 relative activity over WT GLA (SEQ ID NO: 5))”.

B4: 90 (protein)
chain: B1 chain with K96I, G343K
modifications: Synthetic Polypeptide sequence of Variant No. 90 of mature Human GLA
For B4, the “Relative Activity of GLA Variants After No Challenge (NC)” value in data set [1] is given as “+ (+ = 0.5 to 1.5 relative activity over WT GLA (SEQ ID NO: 5))”. The “Relative Activity … at pH 4.2” value in data set [2] was “+ (+ = 0.5 to 1.5 relative activity over WT GLA (SEQ ID NO: 5))”. Further, the “Relative Activity … at pH 7.1” value in data set [3] is on record as “+ (+ = 0.5 to 1.5 relative activity over WT GLA (SEQ ID NO: 5))”.

B5: 91 (protein)
chain: B1 chain with K96L, G343K
modifications: Synthetic Polypeptide sequence of Variant No. 91 of mature Human GLA
For the molecule B5, the “Relative Activity of GLA Variants After No Challenge (NC)” value in data set [1] is on record as “+ (+ = 0.5 to 1.5 relative activity over WT GLA (SEQ ID NO: 5))”. In addition, the “Relative Activity … at pH 4.2” value in data set [2] is “+ (+ = 0.5 to 1.5 relative activity over WT GLA (SEQ ID NO: 5))”. Moreover, in data set [3], the “Relative Activity … at pH 7.1” value is reported as “++ (++ = >1.5 to 2.5 relative activity over WT GLA (SEQ ID NO: 5))”.

B6: 83 (protein)
chain: B1 chain with K36E, G343K
modifications: Synthetic Polypeptide sequence of Variant No. 83 of mature Human GLA
For B6, in data set [1], the “Relative Activity of GLA Variants After No Challenge (NC)” value was “+ (+ = 0.5 to 1.5 relative activity over WT GLA (SEQ ID NO: 5))”. The “Relative Activity … at pH 4.2” value in data set [2] is recorded as “++ (++ = >1.5 to 2.5 relative activity over WT GLA (SEQ ID NO: 5))”. In data set [3], the “Relative Activity … at pH 7.1” value is “+ (+ = 0.5 to 1.5 relative activity over WT GLA (SEQ ID NO: 5))”.

B7: 94 (protein)
chain: B1 chain with L100F, G343K
modifications: Synthetic Polypeptide sequence of Variant No. 94 of mature Human GLA
As for B7, the “Relative Activity of GLA Variants After No Challenge (NC)” value in data set [1] is recorded as “+ (+ = 0.5 to 1.5 relative activity over WT GLA (SEQ ID NO: 5))”. The “Relative Activity … at pH 4.2” value in data set [2] is “+ (+ = 0.5 to 1.5 relative activity over WT GLA (SEQ ID NO: 5))”. The “Relative Activity … at pH 7.1” value in data set [3] is “+ (+ = 0.5 to 1.5 relative activity over WT GLA (SEQ ID NO: 5))”.

B8: 82 (protein)
chain: B1 chain with K36D, G343K
modifications: Synthetic Polypeptide sequence of Variant No. 82 of mature Human GLA
As for B8, the “Relative Activity of GLA Variants After No Challenge (NC)” value in data set [1] is “+ (+ = 0.5 to 1.5 relative activity over WT GLA (SEQ ID NO: 5))”. In data set [2], the “Relative Activity … at pH 4.2” value is reported as “+ (+ = 0.5 to 1.5 relative activity over WT GLA (SEQ ID NO: 5))”. Besides, in data set [3], the “Relative Activity … at pH 7.1” value is given as “+ (+ = 0.5 to 1.5 relative activity over WT GLA (SEQ ID NO: 5))”.

B9: 88 (protein)
chain: B1 chain with G343K, D395S
modifications: Synthetic Polypeptide sequence of Variant No. 88 of mature Human GLA
With B9, the “Relative Activity of GLA Variants After No Challenge (NC)” value in data set [1] was “+ (+ = 0.5 to 1.5 relative activity over WT GLA (SEQ ID NO: 5))”. Besides, the “Relative Activity … at pH 4.2” value in data set [2] is “++ (++ = >1.5 to 2.5 relative activity over WT GLA (SEQ ID NO: 5))”. The “Relative Activity … at pH 7.1” value in data set [3] was “+ (+ = 0.5 to 1.5 relative activity over WT GLA (SEQ ID NO: 5))”.

B10: 92 (protein)
chain: B1 chain with K96R, G343K
modifications: Synthetic Polypeptide sequence of Variant No. 92 of mature Human GLA
B10: the “Relative Activity of GLA Variants After No Challenge (NC)” value in data set [1] is “+ (+ = 0.5 to 1.5 relative activity over WT GLA (SEQ ID NO: 5))”. In addition, in data set [2], the “Relative Activity … at pH 4.2” value is given as “+ (+ = 0.5 to 1.5 relative activity over WT GLA (SEQ ID NO: 5))”. The “Relative Activity … at pH 7.1” value in data set [3] was “+ (+ = 0.5 to 1.5 relative activity over WT GLA (SEQ ID NO: 5))”.

B11: 87 (protein)
chain: B1 chain with G343K, D395R
modifications: Synthetic Polypeptide sequence of Variant No. 87 of mature Human GLA
Consider B11, for which the “Relative Activity of GLA Variants After No Challenge (NC)” value in data set [1] was “+ (+ = 0.5 to 1.5 relative activity over WT GLA (SEQ ID NO: 5))”. For the same molecule, the “Relative Activity … at pH 4.2” value in data set [2] was “++ (++ = >1.5 to 2.5 relative activity over WT GLA (SEQ ID NO: 5))”. For the same molecule, the “Relative Activity … at pH 7.1” value in data set [3] is “+ (+ = 0.5 to 1.5 relative activity over WT GLA (SEQ ID NO: 5))”.

B12: 89 (protein)
chain: B1 chain with G343K, D395T
modifications: Synthetic Polypeptide sequence of Variant No. 89 of mature Human GLA
Turning to B12, the “Relative Activity of GLA Variants After No Challenge (NC)” value in data set [1] is recorded as “++ (++ = >1.5 to 2.5 relative activity over WT GLA (SEQ ID NO: 5))”. The “Relative Activity … at pH 4.2” value in data set [2] is “+ (+ = 0.5 to 1.5 relative activity over WT GLA (SEQ ID NO: 5))”. Moreover, the “Relative Activity … at pH 7.1” value in data set [3] was “+ (+ = 0.5 to 1.5 relative activity over WT GLA (SEQ ID NO: 5))”.

B13: 85 (protein)
chain: B1 chain with G343K, D395G
modifications: Synthetic Polypeptide sequence of Variant No. 85 of mature Human GLA
Regarding B13, in data set [1], the “Relative Activity of GLA Variants After No Challenge (NC)” value is given as “+ (+ = 0.5 to 1.5 relative activity over WT GLA (SEQ ID NO: 5))”. In addition, in data set [2], the “Relative Activity … at pH 4.2” value is “+ (+ = 0.5 to 1.5 relative activity over WT GLA (SEQ ID NO: 5))”. Besides, the “Relative Activity … at pH 7.1” value in data set [3] is recorded as “+ (+ = 0.5 to 1.5 relative activity over WT GLA (SEQ ID NO: 5))”.

B14: 80 (protein)
chain: B1 chain with G343K, K362Q
modifications: Synthetic Polypeptide sequence of Variant No. 80 of mature Human GLA
As to B14, the “Relative Activity of GLA Variants After No Challenge (NC)” value in data set [1] is recorded as “+ (+ = 0.5 to 1.5 relative activity over WT GLA (SEQ ID NO: 5))”. In addition, in data set [2], the “Relative Activity … at pH 4.2” value is “+ (+ = 0.5 to 1.5 relative activity over WT GLA (SEQ ID NO: 5))”. Further, the “Relative Activity … at pH 7.1” value in data set [3] was “+ (+ = 0.5 to 1.5 relative activity over WT GLA (SEQ ID NO: 5))”.

B15: 93 (protein)
chain: B1 chain with K96R, G343K, L397V
modifications: Synthetic Polypeptide sequence of Variant No. 93 of mature Human GLA
Take B15: the “Relative Activity of GLA Variants After No Challenge (NC)” value in data set [1] is recorded as “++ (++ = >1.5 to 2.5 relative activity over WT GLA (SEQ ID NO: 5))”. For the same molecule, the “Relative Activity … at pH 4.2” value in data set [2] is recorded as “+++ (+++ = >2.5 relative activity over WT GLA (SEQ ID NO: 5))”. Also, the “Relative Activity … at pH 7.1” value in data set [3] is reported as “+ (+ = 0.5 to 1.5 relative activity over WT GLA (SEQ ID NO: 5))”.
